Test [1] deals with SARS-CoV-2 WT NTD with the native signal peptide (SARS-CoV-2, Wuhan-Hu-1 (wild type), UniProt P0DTC2). Nature of the test: ELISA. Conditions: both partners purified. For orientation: An ELISA detects its analyte on a solid surface through an enzyme-linked reagent.
In test [2] the target is SARS-CoV-2 S N-terminal domain (NTD), wild type, with the native signal peptide (SARS-CoV-2, Wuhan-Hu-1 (wild type), UniProt P0DTC2). Nature of the test: ELISA. Conditions: both partners purified.

The values that follow come from article PMC9835956 (Science (New York, N.y.), 2021).

B1: S2L20 mAb (antibody, V domains shown)
VH: EVQLVESGGGVVQPGGSLRLSCAASGFTFNSYGMHWVRQAPGKGLEWVAFIRYDGGNKYYADSVKGRFTISRDNSKNTLYLQMKSLRAEDTAVYYCANLKDSRYSGSYYDYWGQGTLVTVS
VL: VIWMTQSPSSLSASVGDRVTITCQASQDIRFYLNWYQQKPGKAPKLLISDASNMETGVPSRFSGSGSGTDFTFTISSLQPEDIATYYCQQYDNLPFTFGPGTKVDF
B1: the binding result in test [1] is given as “binds”.

B2: S2X333 mAb (NTD-specific, neutralizing, antigenic site i) (antibody, V domains shown)
VH: VQLVESGGGVVQPGRSLRLSCAASGFTFSNYGMHWVRQAPGKGLEWVAVIWYDGSNKFYADSVKGRFTISRDNSKNSLYLQMNSLRAEDTAVYFCARAFPDSSSWSGFTIDYWGQGTLVTV
VL: YELTQPPSVSTARITCGGNNIERKSVHWCQQKPGQAPALVVYDDSDRPSGIPERFSGSNSGNTATLTISRVEAGDEADYYCQVWDSGSDQVIFGGGTKLT
For the molecule B2, the binding result in test [2] is given as “binds”.
